Source: PMC11500415, “Chemical inhibition of stomatal differentiation by perturbation of the master-regulatory bHLH heterodimer via an ACT-Like domain” (Nature Communications, 2024)

T1: SCRM-MUTE heterodimer (Arabidopsis thaliana, UniProt Q9M8K6)
T1 construct: expressed in transfected cells; host or cells: yeast strain AH109
T1 sequence (Q9M8K6 1-202): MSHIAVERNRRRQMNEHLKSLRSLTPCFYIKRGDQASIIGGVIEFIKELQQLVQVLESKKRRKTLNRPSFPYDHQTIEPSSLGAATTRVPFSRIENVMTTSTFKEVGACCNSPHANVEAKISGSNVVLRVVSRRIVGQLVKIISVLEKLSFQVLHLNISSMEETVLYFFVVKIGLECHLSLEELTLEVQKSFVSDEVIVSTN

T2: SCRM-SPCH heterodimer (Arabidopsis thaliana, UniProt Q700C7)
T2 construct: truncated SPCH and FAMA proteins lacking their N-terminal domain were used in yeast; expressed in transfected cells; host or cells: yeast strain AH109
T2 sequence (Q700C7 98-364 limits assumed): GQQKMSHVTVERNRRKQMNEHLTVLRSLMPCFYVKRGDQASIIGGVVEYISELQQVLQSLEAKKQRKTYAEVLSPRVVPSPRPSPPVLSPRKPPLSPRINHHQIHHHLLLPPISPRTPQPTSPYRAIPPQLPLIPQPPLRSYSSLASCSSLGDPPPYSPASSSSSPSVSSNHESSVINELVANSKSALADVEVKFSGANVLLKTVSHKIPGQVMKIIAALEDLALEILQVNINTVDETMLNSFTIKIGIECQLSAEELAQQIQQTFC

B1: MUTE, recombinant full-length protein (1-202), as used in ITC (natural protein, A. thaliana, UniProt Q9M8K6 1-202, looked up)
chain: T1 sequence (Q9M8K6 1-202)
notes: called full-length in the results; source: E. coli BL21, purified (glutathione resin, thrombin digestion, Superdex-200); not shown: GST, N-terminal, cleaved
B2: SCREAM (SCRM), recombinant full-length protein (1-494) (natural protein, A. thaliana, UniProt Q9LSE2 1-494, looked up)
chain: MGLDGNNGGGVWLNGGGGEREENEEGSWGRNQEDGSSQFKPMLEGDWFSSNQPHPQDLQMLQNQPDFRYFGGFPFNPNDNLLLQHSIDSSSSCSPSQAFSLDPSQQNQFLSTNNNKGCLLNVPSSANPFDNAFEFGSESGFLNQIHAPISMGFGSLTQLGNRDLSSVPDFLSARSLLAPESNNNNTMLCGGFTAPLELEGFGSPANGGFVGNRAKVLKPLEVLASSGAQPTLFQKRAAMRQSSGSKMGNSESSGMRRFSDDGDMDETGIEVSGLNYESDEINESGKAAESVQIGGGGKGKKKGMPAKNLMAERRRRKKLNDRLYMLRSVVPKISKMDRASILGDAIDYLKELLQRINDLHNELESTPPGSLPPTSSSFHPLTPTPQTLSCRVKEELCPSSLPSPKGQQARVEVRLREGRAVNIHMFCGRRPGLLLATMKALDNLGLDVQQAVISCFNGFALDVFRAEQCQEGQEILPDQIKAVLFDTAGYAGMI
notes: SCRM (ICE1), A. thaliana, residues 1-494; called full-length in the results; The methods describe thrombin removal of GST for all recombinant proteins; For the BLI runs of SCRM with MUTE one partner must have kept GST (anti-GST probes); also called ICE1; source: E. coli BL21, purified (glutathione resin, thrombin digestion, Superdex-200); not shown: GST, N-terminal, cleaved

Experiments:
SCRM-MUTE heterodimer = molecular target: T1, SCRM-MUTE heterodimer; assay: Y2H growth and quantitative α-galactosidase assay; format: cell-based; conditions: 50 μM; 1 mM 3-AT
Method: (§1) Y2H assays were performed using the Matchmaker^TM Two-Hybrid System (Clontech). Bait (pGBKT7) and prey (pGADT7) constructs were co-transformed into the yeast strain AH109 using Frozen-EZ Yeast Transformation II Kit (Zymo Research, T2001). The resulting transformants were spotted on SD ( − Leu, −Trp) and SD ( − Trp, −Leu, −His) selection media containing different concentrations of 3-amino-1,2,4-triazole (Sigma, A8056) as previously reported. Quantitative α-galactosidase assay was also performed according to manufactural instruction (Clontech). Briefly, the transformants were incubated in 2 ml SD medium with 0, 10, 50 100 μM Stomidazolone (3) or SIM3* (7) with rotary shake (220 rpm) at 30 °C overnight. The cultured media containing yeast were transferred to microtubes and centrifuged to obtain the supernatant. The colorimetric assay was performed by incubating 8 μL of supernatant with 24 μL Assay Buffer that contains 0.5 M sodium acetate (pH 4.5) (Nakalai tesque, 31137-25): 100 mM p-nitrophenyl α-D-Galactopyranoside Solution (Sigma N0877) = 2:1 (v/v) at 30 °C for 60 min, then terminated by adding 960 μL 1X Stop Solution (0.1 M sodium carbonate, Fujifilm Wako 195-01582). After OD410 was recorded, α-galactosidase units were calculated according to the protocol (Clontech, P3024-1).

SCRM-SPCH heterodimer = molecular target: T2, SCRM-SPCH heterodimer; assay: Y2H growth and quantitative α-galactosidase assay; format: cell-based; conditions: 50 μM; 1 mM 3-AT; N-terminally truncated SPCH
Method: as §1

SCRM-FAMA heterodimer = molecular target: T3, SCRM-FAMA heterodimer (Arabidopsis thaliana, UniProt Q56YJ8); assay: Y2H growth and quantitative α-galactosidase assay; format: cell-based; conditions: 50 μM; 1 mM 3-AT; N-terminally truncated FAMA
T3 construct: truncated SPCH and FAMA proteins lacking their N-terminal domain were used in yeast; expressed in transfected cells; host or cells: yeast strain AH109
Method: as §1

[1] = test system: Arabidopsis wild-type (WT) seedlings; assay: Stomatal development bioassay, seedlings in liquid culture; format: in vivo; conditions: 50 μM; WT seedlings, liquid culture
Method: Arabidopsis accession Columbia (Col-0) was used as wild-type. […] Their genotype and transcript reduction were confirmed. The presence of transgenes/mutant alleles were confirmed by genotyping. For liquid culture with Stomidazolone (AYSJ929, compound 3), the analogs (AYSJ1059 (compound 5) and AYSJ1061 (compound 6)), degraded compound lzx103 (compound 4), and SIM3* (compound 7), all compounds were dissolved in dimethyl sulfoxide (DMSO, Molecular biology grade, Fujifilm Wako, Japan 046-21981), Col-0 seeds were sown in 96-well plates (TL5003; True Line) containing 95 μL of 1/2 MS media containing 0.5% sucrose with rotary shaking at 140 rpm under continuous light at 22 °C. Five μL of compounds were dissolved in DMSO at 10 mM and diluted with liquid 1/2 MS media to 1 mM and added on 1-day-old seedlings (final concentration, 50 μM). Seedlings were incubated for 8 days, and at day 9 seedling abaxial cotyledons were observed through confocal microscopy. For liquid culture of scrm-D_S343 and scrm-D_S423, 1/2 MS liquid media without sucrose was used. For the solid culture, 0, 20, 50 or 100 μM Stomidazolone were solidified with low-melting agarose (5805S, PrimeGelTM Agarose LMT 1-20 K, TAKARA Bio). Briefly, 1/2 MS salt, 0.5% sucrose, and 0.8% low melting agarose were mixed in water and autoclaved. After cooling the medium at around 30 °C, Stomidazolone (500x, dissolved in DMSO) was added and poured into 90 mm petri dishes (Asnol Petri Dish JP φ90 x 15 mm, 3-1491-01, AS ONE). Col-0 seeds were sown on Stomidazolone-containing 1/2 MS agarose media and grown under continuous light for 9 days.
For confocal microscopy, cell peripheries of seedlings were visualized with propidium iodide (Sigma, P4170). Images were acquired using LSM800 or LSM700 (Zeiss) using a 20x lens. The GFP, YFP reporter and PI signals were detected with excitation at 488 nm and an emission filter of 410 to 546 nm, at 488 nm and an emission filter of 410 to 546 nm, and with excitation at 561 nm and 582–617 nm emission range, respectively. Raw data were collected with 1024 × 1024 pixel images. For qualitative image presentation, Adobe Photoshop CC was used to trim and uniformly adjust the contrast/brightness.
For quantitative analysis of the abaxial leaf epidermis, confocal images were taken on the days after germination as indicated in the Figure legends. Preparation of images was done as described previously[32],[70]. For counting epidermal cell types, stomatal density, stomatal precursor cells (meristemoids), total stomata-lineage cells (stomata and meristemoids) were calculated by counting cell types in an area of 0.4 mm^2 (0.63 mm × 0.63 mm) and plotted as per mm^2. A series of Z-stack confocal images was obtained to obtain images covering the epidermis and capturing GFP/YFP signal from the reporter lines. The area and the number of epidermal cells were quantified by using FIJI-ImageJ. Statistical analyses were performed using R ver. 4.0.2. Sample sizes (n) are indicated and defined in each legend. For the multiple sample comparison, 1-way ANOVA was performed followed by a post hoc Tukey HSD test. For the two-sample comparison, Student’s T-test was performed. Graphs were generated using R ggplot2 package. For all boxplots, each box represents IQR (interquartile range), in which top, middle line, and bottom indicating 75, 50, and 25 percentiles, respectively, and the bar representing maximum to minimal values. Each magenta dot represents jittered individual data point. The datapoints that go beyond the bar are outliers, which are indicated as black dots. If the data point is greater than Q3 + 1.5*IQR (above the third quartile is greater than 1.5 times of the interquartile range) or less than Q1 − 1.5*IQR, that data point is classified as outlier. The color of Boxplot graph was based on ColorBrewer.org. The value of n, the number of each experiment or samples, the means of error bars, and how statistical significance was defined are indicated in a relevant figure legend. […]

stomatal movement = test system: stomatal movement; design: method as in PMID 35042960; conditions: previous chemical screens and SAR studies; cited from earlier work
[2] = molecular target: B2; assay: ITC; SCRM to MUTE in the presence of AYSJ1059 (5); Malvern PEAQ-ITC; PBS with 2% DMSO and 1 mM DTT; methods: 30 °C, pH 7.4; legend of Supplementary Table 2: pH 7.2, 25 °C; conditions: both partners purified
[3] = molecular target: B2; assay: ITC; SCRM to MUTE in the presence of AYSJ1061 (6); Malvern PEAQ-ITC; PBS with 2% DMSO and 1 mM DTT; methods: 30 °C, pH 7.4; legend of Supplementary Table 2: pH 7.2, 25 °C; conditions: both partners purified
[4] = molecular target: B1; assay: ITC; SCRM to MUTE in the presence of AYSJ1059 (5); Malvern PEAQ-ITC; PBS with 2% DMSO and 1 mM DTT; methods: 30 °C, pH 7.4; legend of Supplementary Table 2: pH 7.2, 25 °C; conditions: both partners purified
[5] = molecular target: B1; assay: ITC; SCRM to MUTE in the presence of AYSJ1061 (6); Malvern PEAQ-ITC; PBS with 2% DMSO and 1 mM DTT; methods: 30 °C, pH 7.4; legend of Supplementary Table 2: pH 7.2, 25 °C; conditions: both partners purified
[6] = molecular target: B1; assay: ITC; SCRM to MUTE, no compound; Malvern PEAQ-ITC; PBS with 2% DMSO and 1 mM DTT; methods: 30 °C, pH 7.4; legend of Supplementary Table 2: pH 7.2, 25 °C; means of two experiments; conditions: both partners purified
[7] = molecular target: B1; assay: ITC; SCRM to MUTE pre-incubated with Stomidazolone (3); Malvern PEAQ-ITC; PBS with 2% DMSO and 1 mM DTT; methods: 30 °C, pH 7.4; legend of Supplementary Table 2: pH 7.2, 25 °C; conditions: both partners purified

T3 sequence (Q56YJ8 190-414, one chain of several): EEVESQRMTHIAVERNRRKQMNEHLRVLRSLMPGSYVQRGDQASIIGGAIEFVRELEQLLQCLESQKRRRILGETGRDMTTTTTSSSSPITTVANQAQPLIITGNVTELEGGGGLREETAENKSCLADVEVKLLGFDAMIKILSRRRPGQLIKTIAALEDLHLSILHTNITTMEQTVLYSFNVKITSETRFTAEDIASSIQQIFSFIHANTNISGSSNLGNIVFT

Molecule: Cc1nc(-c2ccccc2)c(NS(=O)(=O)c2ccccc2)o1 [SIM3*, reference compound]
effect on association in Y2H growth assay (SCRM-MUTE heterodimer): no effects
effect on association in Y2H growth assay (SCRM-SPCH heterodimer): no effects
effect on association in Y2H growth assay (SCRM-FAMA heterodimer): no effects
effect on stomatal development (in words) [1]: no effects
effect on stomatal movement (in words) (stomatal movement): inhibit stomatal movement

Molecule: B1
Kd [2]: 9.6 ± 1.8 nM
Kd [3]: 11.4 ± 2.1 nM

Molecule: B2
stoichiometry N [4]: 1
stoichiometry N [5]: 1.1
stoichiometry N [6]: 0.96
stoichiometry N [7]: 0.91
